What was measured:
[1] = target: PhtD of pneumococcal strain TCH8431 (serotype 19A), endogenous (Streptococcus pneumoniae TCH8431 …, UniProt A0A0H2UPR0, strain); experiment: Western blot
[2] = target: PhtD of pneumococcal strain TIGR4 (serotype 4), endogenous (Streptococcus pneumoniae TIGR4 …, UniProt A0A0H2UPR0); experiment: Western blot
[3] = target: MBP-PhtD fragment, amino acids 341 to 838 (Streptococcus pneumoniae TCH8431 …, UniProt A0A0H2UPR0, strain); experiment: ELISA

B1: human MAb PhtD3 (antibody, V domains shown)
VH: QVQLVQSGPDVKKPGSSVKVSCKASGAAFESFAFAWVRQAPGQGFEWMGRIIPILETRDYAEKFQGRMTMTTDESTATAYMELNSLRFEDTAVYFCARDGHIMRTTLSDAALDVWGQGTTVIVSS
VL: DIVMTQSPVTLSLSPGERATLSCRASQSLTDNYLAWYQQKPGQAPRLLIYAASTRATGIPDRISGSGSGTDFTLTISRVEPEDFAMFYCQQYQNSPFTFGGGTTVEIK
[1]
  binding result: binds
[2]
  binding result: binds

B2: human MAb PhtD7 (antibody, V domains shown)
VH: EVQLVQSGAEVKKPGASVKVSCKASGDIFSDSYIHWVRQAPGQGPEWMGWVSPNTGATHYAQKLQGRVTMTSDTSISTAYLELTRLASDDTAVYYCARVLRGSYDFRGNYPHDFDYWGQGTLVTVSS
VL: QLVLTQPPSASASLGASVTLTCTLSRGHNNYPIAWLQKQTDKGPRYVMRLNSDGSHHKGDGIPDRFSGSSSGAERYLSISSLQPEDEAEYYCQTWDTGLQGVFGGGTKLFVL
[3]
  binding result: binds
